Numbering of substitutions follows the chain as printed. Like-named read-outs stand apart in the source and are kept apart here. No end group written: not given here.
What was measured:
CAPN5-PC p.G267S = target: T1, CAPN5-PC p.G267S (Homo sapiens, UniProt O15484, G267S); experiment: In vitro CAPN5 activity assay with consensus FRET peptides; type: biochemical; settings: 1.6 μM CAPN5-PC p.G267S, 10 mM Ca^2+
T1 construct: active recombinant CAPN5 protease core (CAPN5-PC)
T1 sequence (O15484 26-343 G267S limits assumed): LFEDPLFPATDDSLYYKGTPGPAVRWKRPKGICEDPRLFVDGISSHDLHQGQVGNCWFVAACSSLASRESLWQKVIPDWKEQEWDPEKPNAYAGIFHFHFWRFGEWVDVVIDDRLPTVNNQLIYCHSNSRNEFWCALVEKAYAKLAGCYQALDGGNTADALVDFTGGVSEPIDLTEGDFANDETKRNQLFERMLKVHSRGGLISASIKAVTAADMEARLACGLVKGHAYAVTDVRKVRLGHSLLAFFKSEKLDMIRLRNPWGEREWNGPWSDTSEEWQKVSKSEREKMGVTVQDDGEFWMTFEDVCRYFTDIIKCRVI
Procedure: Consensus FRET peptides were synthesized based on the highest scoring amino acids at each position of the PSSM (Peptides P4′A, P4′P, P2R, and P3GP1′ V) and were tested in our in vitro CAPN5 activity assay (FIG. 9B). These substrates were hydrolyzed by 1.6 μM CAPN5-PC p.G267S in the presence of 10 mM Ca^2+. […] The catalytic efficiency (kcat/Km) of this peptide was higher than the observed kcat/Km for our previously determined PR1476 peptide (11 vs. 7 M^−1s^−1; FIG. 9D).

[1] = target: T2, Calpain-5 protease core domain (CAPN5-PC) (Homo sapiens, UniProt O15484); experiment: CAPN5 functional assay (FRET peptide substrate kinetics)
T2 sequence (O15484 26-343 limits assumed): T1 sequence (O15484 26-343 G267S limits assumed) with S242G
Procedure: The assay was performed using a Greiner 96-well Black Small Volume plate according to the following protocol for measuring enzymatic activity of the calpain-5 protease: • Dilute CAPN5 in activity buffer to make a master mix at 3 concentrations. • Add 50 μL of substrate diluted with activity buffer (7 working concentrations at 2×). • Add 50 μL of CAPN5 to each well with multi-channel pipette. • Measure fluorescence activity (336/490 nm) on Tecan Spark at 37° C. for 2 hours with recordings taken every 2 minutes (with lid). • Convert RFU values to nM product using standard curve of EDANS concentrations (2 nM to 5 μM). • Calculate reaction velocity (slope) at each substrate concentration using linear regression. • Calculate Michaelis-Menten kinetic parameters in GraphPad Prism 8.

CAPN5-R243L = CAPN5-R243L (Homo sapiens, UniProt O15484, R243L); experiment: FRET-based CAPN5 inhibition assay, R243L mutant protease; type: biochemical
CAPN5-R243L, sequence (O15484 whole entry R243L, the tested form may be a part): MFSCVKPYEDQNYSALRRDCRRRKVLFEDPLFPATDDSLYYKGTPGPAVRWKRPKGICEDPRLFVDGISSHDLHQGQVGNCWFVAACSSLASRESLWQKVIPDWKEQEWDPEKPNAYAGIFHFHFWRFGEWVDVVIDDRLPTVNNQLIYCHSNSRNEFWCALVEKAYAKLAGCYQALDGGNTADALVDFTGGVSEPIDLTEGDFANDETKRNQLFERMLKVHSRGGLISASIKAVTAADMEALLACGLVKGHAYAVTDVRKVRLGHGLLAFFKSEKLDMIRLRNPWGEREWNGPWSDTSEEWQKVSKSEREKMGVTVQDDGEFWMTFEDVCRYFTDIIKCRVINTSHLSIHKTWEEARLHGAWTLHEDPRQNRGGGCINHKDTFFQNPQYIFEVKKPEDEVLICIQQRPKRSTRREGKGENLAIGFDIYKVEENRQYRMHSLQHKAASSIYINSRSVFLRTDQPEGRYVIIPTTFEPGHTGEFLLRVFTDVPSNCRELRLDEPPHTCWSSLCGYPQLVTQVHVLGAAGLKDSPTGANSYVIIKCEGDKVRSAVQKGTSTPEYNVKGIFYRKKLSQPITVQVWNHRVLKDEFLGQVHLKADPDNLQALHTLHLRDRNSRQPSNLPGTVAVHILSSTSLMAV
Procedure: (§1) We have optimized the CAPN5 assay and developed a high throughput CAPN5 inhibition assay which utilizes 384-well plates and uses less than 50 nM protease for each experimental condition. Calpain proteolytic activity was measured by hydrolysis of DABCYL-TPLKSPPPSPR (SEQ ID NO:3)-EDANS (Calpain Substrate III; Calbiochem). Briefly, 50 nM of purified CAPN5-G267S protease core domain was added to a reaction buffer containing 50 mM imidazole (pH 7.0), 200 mM NaCl, 20 mM CaCl2, 1 mM EDTA, 8 mM Li-acetate, 0.19 mM Facade®-EPC, 1 mM TCEP, 0.8% (v/v) glycerol, 4% (v/v) 1,3-butanediol. 8 μL of protease was added to each well of the 384-well plates. Varying concentrations of […] (final concentration of 0.1 μM to 100 μM; 4 μL in each well) were added and the reaction was incubated at 37° C. for 30 minutes. After incubation, 8 μL of Calpain Substrate III was added to each well (final concentration of 40 μM; total reaction volume was 20 μL) and EDANS signal was measured on a fluorimetric plate reader (Tecan Spark, Mannedorf Switzerland). All experiments were performed in triplicate. Reaction rates were fit to the Hill equation to determine the IC50 values in GraphPad Prism 8. This assay condition is compatible with CAPN1 and CAPN5 wild-type. We have chosen CAPN5-G267S for initial inhibitor screening, since it has higher activity than CAPN5 wild-type and the mutation is located at the G2-loop which is away from the active site that is likely to have identical specificity to CAPN5 wild-type specificity.
(§2) We have identified the PDGFB protein as a substrate. We discovered a likely proteolytic site for CAPN5 on PDGFB, and sought to use this information to inhibit proteolysis assuming the alteration of a robust endogenous substrate of CAPN5 would create an opportunity for more specific inhibition of CAPN5. We generated two artificial peptides by methylating only P1-Lysine (1-Methylated; FIG. 7A) or both P1-Lysine and P1′-Lysine (2-Methylated; FIG. 7B) expecting the methylation would make the PDGFB peptide motif resistant to CAPN5 proteolysis. We tested their inhibitory potential against CAPN5-G267S using our high throughput FRET-based CAPN5 inhibition assay. […] We further tested them with the CAPN5 wild-type and CAPN5-R243L mutant proteases. Both methylated PDGFB peptides inhibited CAPN5-R243L activity at the nanomolar IC50 (FIG. 7E).

CAPN5 wild-type = CAPN5 wild-type (Homo sapiens, UniProt O15484); experiment: FRET-based CAPN5 inhibition assay, wild-type protease; type: biochemical; settings: for IC50: CAPN5 WT; for inhibition of wildtype CAPN5: CAPN5 wild-type
CAPN5 wild-type, sequence (O15484 whole entry): as the sequence (O15484 whole entry R243L, the tested form may be a part) above, with L243R counted along it
Procedure: as §1, §2

Human CAPN5-PC = Human CAPN5-PC (Homo sapiens, UniProt O15484); experiment: Human CAPN5-PC | Ki (µM)
Human CAPN5-PC, sequence (O15484 26-343): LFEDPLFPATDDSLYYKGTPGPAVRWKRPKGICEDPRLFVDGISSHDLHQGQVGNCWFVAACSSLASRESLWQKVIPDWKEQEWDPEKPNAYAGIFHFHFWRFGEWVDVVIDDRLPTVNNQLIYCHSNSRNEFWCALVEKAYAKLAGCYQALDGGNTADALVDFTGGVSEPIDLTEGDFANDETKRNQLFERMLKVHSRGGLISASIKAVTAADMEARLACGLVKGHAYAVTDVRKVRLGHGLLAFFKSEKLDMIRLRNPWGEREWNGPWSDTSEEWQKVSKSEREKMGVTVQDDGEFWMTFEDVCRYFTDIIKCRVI
Procedure: Table printed on a drawing sheet, FIG. 1C
Head of the field: Human CAPN5-PC | Ki (µM)
The patent's description of the figure: FIGS. 1A-1C show kinetic analysis of human CAPN5 and rat CAPN1 with the peptide substrates, RQNRGGGCINH (SEQ ID NO:1, FIG. 1A) and PLFAER (SEQ ID NO:2, FIG. 1B).
FIGS. 1A-1B show kinetic analysis of human CAPN5 and rat CAPN1 with the peptide substrates, RQNRGGGCINH (SEQ ID NO:1, FIG. 1A) and PLFAER (SEQ ID NO:2, FIG. 1B) using this protocol. […] A 10 mM PR1476 master stock was prepared in 100% DMSO. 3.69 mM PR1478 master stock was prepared in 50% DMSO/50% activity buffer.
First copying reader's note: Enzyme kinetic parameters of peptide substrates with calpain protease cores; the ± error stands inside the cells.
Where the first naming reader finds the target: head: Human CAPN5-PC

Molecule: EVRALEEA (also: FRET labels, places not given here) [P2R, consensus FRET peptide substrate of calpain-5]
- hydrolysis by CAPN5-PC p.G267S (CAPN5-PC p.G267S): hydrolyzed
- substrate turnover (kcat), preference (CAPN5-PC p.G267S): preferred by CAPN5-PC

Molecule: RQNRGGGCINH (N-terminal Dabcyl, EDANS on glutamate, C-terminal cap; calpain-5 peptide substrate) [PR1476]
- activity as substrate with CAPN5 ([1]; CAPN5 0, 0.16, 0.49, 1.6 μm, peptide 0 μM to 160 μM): displays activity in a CAPN5 dose-dependent manner
- substrate quality / sensitivity to CAPN5-PC activity ([1]; comparison between substrates): more sensitive than other generic calpain substrates

Molecule: CC(=O)N[C@@H](CC(C)C)C(=O)N[C@@H](CC(C)C)C(=O)N[C@H](C=O)CCCNC(=N)N [Leupeptin]
- inhibition of CAPN5-R243L (mutant CAPN5) (CAPN5-R243L): did not show any inhibition
- inhibition of CAPN5-R243L (mutant CAPN5) (CAPN5-R243L; listed as leupeptin): not the mutant CAPN5
- IC50 (CAPN5 wild-type): nanomolar
- inhibition of wildtype CAPN5 (CAPN5 wild-type): inhibit the wildtype

Molecule: CCCC[C@@H](C=O)NC(=O)[C@H](CC(C)C)NC(=O)OCc1ccccc1 [Calpeptin]
- inhibition of CAPN5-R243L (mutant CAPN5) (CAPN5-R243L): did not show any inhibition
- inhibition of CAPN5-R243L (mutant CAPN5) (CAPN5-R243L; listed as calpeptin): not the mutant CAPN5
- IC50 (CAPN5 wild-type): nanomolar
- inhibition of wildtype CAPN5 (CAPN5 wild-type): inhibit the wildtype

Molecule: EGKAVLEA (also: FRET labels, places not given here) [P3GP1′V, consensus FRET peptide substrate of calpain-5]
- hydrolysis by CAPN5-PC p.G267S (CAPN5-PC p.G267S): hydrolyzed

Molecule: RQNRGGGCINH (not fully specified (N-terminus)) [PR1476]
- Ki (Human CAPN5-PC): 43 ± 14 µM

Molecule: EVKALEEP (also: FRET labels, places not given here) [P4′P, consensus FRET peptide substrate of calpain-5]
- hydrolysis by CAPN5-PC p.G267S (CAPN5-PC p.G267S): hydrolyzed

Molecule: EVKALEEA (also: FRET labels, places not given here) [P4′A, consensus FRET peptide substrate of calpain-5]
- hydrolysis by CAPN5-PC p.G267S (CAPN5-PC p.G267S): hydrolyzed

— patent US12486528B2, “Compositions and methods for measuring and inhibiting calpain-5 activity” (The Board of Trustees of the Leland Stanford Junior …, priority 2019, dated 2025)
